Assay results: PMC6423718

Molecular target: bZIP domain of chicken CREB3 (chCREB3), Residues 206-280, His-tagged (chicken)
Test: crystal structure; DNA-free form; sitting-drop vapor diffusion at 4°C, 43% v/v MPD, 100 mM tri-sodium citrate pH 5.6, 10 mM magnesium chloride; molecular replacement; 3.95 Å

stoichiometry N: 2
Substance: bZIP domain of chicken CREB3 (chCREB3), Residues 206-280, His-tagged (domain or fragment)
